In patent US8404647B2, “Peptidylarginine deiminase (PAD) inhibitors” (Chiralix B.V., priority 2008, dated 2013):
Marks after values point to notes of the source that are not given here. Ends that are not written are not given here.

What was measured:
PAD4 = PAD4 (Homo sapiens, UniProt Q9UM07); assay: Conversion (R to Cit) of substrate peptides by PAD4, mass spectrometry; type: biochemical; details: for Conversion (%): PAD4; for Conversion by PAD4 (%): Table 10; for Conversion: Table 7, PAD4, test system with 3 times less enzyme
Text: From previous studies it was known that D-S-Q-F-A-F-R-G-A-S-A-S-D (designated here as L1: SEQ ID NO: 11) is a substrate for PAD2 and PAD 4. To obtain better substrates, and subsequently powerful inhibitors, we intended to identify structural elements that improve substrate properties. A set of 152 individual analog peptides was generated, each differing from L1 by one amino acid at one of the positions −4 to −1 or 1 to 4.
In Table 3 the conversion of each analog (R to Cit conversion) is depicted. Values of the analogs relate to the conversion of the analog compared to the conversion of L1 under standard conditions (100 means a conversion equal to L1, 50 means conversion of 50% of that of L1, 175 means conversion of 175% of that of L1). Numbers above 100 thus relate to amino acid substitutions that improve substrate properties.
Peptides of table 4 are represented by the following sequences SEQ ID NO: 22-31 and 33-46. Control peptide are represented by the following sequences SEQ ID NO: 11 as control L1 and SEQ ID NO: 32 as control L2. Unfortunately, a substantial number of designed peptides were too polar to be analyzed on our LC-MS system (indicated in Table 4 as n.t., not trapped on the column). We therefore also generated and tested these peptides containing two additional N-terminal F-residues to increase hydrophobicity. In this form peptides were trapped on the column and could be analyzed (see Table 5).
Based on the above results we designed 20 peptides containing multiple amino acids that improve substrate properties (see Table 7). The indicated peptides were synthesized and tested in order to identify the best substrate from this group. Here we used a test system with less enzyme (3 times less) compared to the experiments described above.
(§1) Conversion of arginine into citrulline in the substrate peptides by PAD2 or PAD4 using mass spectrometry was performed as follows. A candidate substrate peptide was incubated with a PAD as indicated for several hours at 37° C. The reaction was quenched by the addition with acetic acid. A sample was analysed on a Qtof mass spectrometer (Micromass, UK) and the mass spectrum was compared with that of the same peptide not treated with PAD. Normally, 2^+- and 3^+-ions are detected. The conversion (ΔM=0.98 Da) was calculated on the 2^+- and 3^+-ions individually, and subsequently averaged taking into account the relative peak height of the 2^+- and 3^+-signals (see FIG. 5).

PAD2 = PAD2 (Homo sapiens, UniProt Q9Y2J8); assay: Conversion (R to Cit) of substrate peptides by PAD2, mass spectrometry; type: biochemical; details: for Conversion by PAD2 (%): Table 10; for Conversion (%): Table 9, PAD2
Method: In a similar fashion as for PAD4 we identified improved peptide substrates for PAD2. Again L1 was used as a lead compound. The set of 152 peptides from Table 3 was used and testing was performed as described before.
as §1

[1] = Table 5, peptides with two additional N-terminal F-residues

Chain of PAD4 (Q9UM07 whole entry): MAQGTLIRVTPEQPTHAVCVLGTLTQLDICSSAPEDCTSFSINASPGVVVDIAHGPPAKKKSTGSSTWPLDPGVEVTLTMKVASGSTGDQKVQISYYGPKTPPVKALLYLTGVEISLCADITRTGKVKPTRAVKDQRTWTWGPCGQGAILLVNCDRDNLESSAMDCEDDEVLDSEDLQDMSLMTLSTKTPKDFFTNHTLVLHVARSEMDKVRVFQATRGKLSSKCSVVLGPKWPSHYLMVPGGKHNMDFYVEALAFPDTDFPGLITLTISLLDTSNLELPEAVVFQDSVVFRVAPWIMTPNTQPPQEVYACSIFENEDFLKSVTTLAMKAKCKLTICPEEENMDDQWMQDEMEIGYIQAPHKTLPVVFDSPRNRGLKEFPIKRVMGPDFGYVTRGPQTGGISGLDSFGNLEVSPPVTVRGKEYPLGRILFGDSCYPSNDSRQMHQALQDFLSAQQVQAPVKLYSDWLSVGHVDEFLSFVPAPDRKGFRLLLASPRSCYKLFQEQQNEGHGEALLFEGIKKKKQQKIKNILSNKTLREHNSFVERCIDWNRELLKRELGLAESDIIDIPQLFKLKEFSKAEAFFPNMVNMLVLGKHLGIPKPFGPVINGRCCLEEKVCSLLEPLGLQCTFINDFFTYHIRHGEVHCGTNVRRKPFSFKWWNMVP
Chain of PAD2 (Q9Y2J8 whole entry): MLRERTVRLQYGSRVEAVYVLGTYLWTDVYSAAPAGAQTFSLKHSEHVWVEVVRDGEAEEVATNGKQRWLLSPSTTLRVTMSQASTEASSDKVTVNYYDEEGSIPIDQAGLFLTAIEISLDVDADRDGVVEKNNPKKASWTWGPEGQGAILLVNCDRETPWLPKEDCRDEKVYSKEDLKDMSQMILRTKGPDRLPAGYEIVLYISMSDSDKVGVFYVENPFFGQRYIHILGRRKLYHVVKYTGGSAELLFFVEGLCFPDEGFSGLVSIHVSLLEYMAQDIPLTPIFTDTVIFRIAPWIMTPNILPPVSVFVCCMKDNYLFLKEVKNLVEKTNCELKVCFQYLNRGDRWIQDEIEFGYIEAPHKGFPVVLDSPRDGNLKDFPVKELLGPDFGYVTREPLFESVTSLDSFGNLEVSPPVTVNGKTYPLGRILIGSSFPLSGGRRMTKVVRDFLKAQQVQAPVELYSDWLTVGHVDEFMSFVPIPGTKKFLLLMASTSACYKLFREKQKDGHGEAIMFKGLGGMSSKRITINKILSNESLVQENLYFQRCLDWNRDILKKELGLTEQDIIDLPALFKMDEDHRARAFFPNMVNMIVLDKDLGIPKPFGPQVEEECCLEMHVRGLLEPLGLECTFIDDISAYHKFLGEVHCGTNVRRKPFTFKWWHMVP

## D-S-H-H-F-H-R-E-Y-I-F-S-D (DSHHFHREYIFSD; not fully specified (C-terminus); printed as D-S-H-H-F-H-R-E-Y-I-F-S-D) [Peptide 0608-38]
PAD4; Table 4, 13-mer peptides
  Conversion (%): 90%

## D-S-H-H-L-S-R-D-F-M-Y-S-D (DSHHLSRDFMYSD; not fully specified (C-terminus); printed as D-S-H-H-L-S-R-D-F-M-Y-S-D) [Peptide 0608-39]
PAD4; Table 4, 13-mer peptides
  Conversion (%): 95%

## D-S-H-H-W-D-R-E-W-F-W-S-D (DSHHWDREWFWSD; not fully specified (C-terminus); printed as D-S-H-H-W-D-R-E-W-F-W-S-D) [Peptide 0608-40]
PAD4; Table 4, 13-mer peptides
  Conversion (%): 100%

## D-S-H-K-F-D-R-D-F-I-Y-S-D (DSHKFDRDFIYSD; not fully specified (C-terminus); printed as D-S-H-K-F-D-R-D-F-I-Y-S-D) [Peptide 0608-43]
PAD2
  Conversion by PAD2 (%): 90 ** %
PAD4; Table 4, 13-mer peptides
  Conversion (%): 100%
PAD4
  Conversion by PAD4 (%): 79%

## D-S-H-K-F-D-R-D-F-L-Y-S-D (DSHKFDRDFLYSD; not fully specified (C-terminus); printed as D-S-H-K-F-D-R-D-F-L-Y-S-D) [Peptide 0708-28]
PAD4
  Conversion: 53

## D-S-H-K-H-S-R-E-W-L-W-S-D (DSHKHSREWLWSD; not fully specified (C-terminus); printed as D-S-H-K-H-S-R-E-W-L-W-S-D) [Peptide 0608-36]
PAD2
  Conversion by PAD2 (%): 97%
PAD4; Table 4, 13-mer peptides
  Conversion (%): 90%
PAD4
  Conversion by PAD4 (%): 51%

## D-S-H-K-L-D-R-E-Y-M-F-S-D (DSHKLDREYMFSD; not fully specified (C-terminus); printed as D-S-H-K-L-D-R-E-Y-M-F-S-D) [Peptide 0608-34]
PAD4; Table 4, 13-mer peptides
  Conversion (%): 90%

## D-S-H-K-L-H-R-E-W-M-W-S-D (DSHKLHREWMWSD; not fully specified (C-terminus); printed as D-S-H-K-L-H-R-E-W-M-W-S-D) [Peptide 0608-44]
PAD4; Table 4, 13-mer peptides
  Conversion (%): 95%

## D-S-H-K-W-H-R-D-F-F-Y-S-D (DSHKWHRDFFYSD; not fully specified (C-terminus); printed as D-S-H-K-W-H-R-D-F-F-Y-S-D) [Peptide 0608-35]
PAD2
  Conversion by PAD2 (%): 92%
PAD4
  Conversion by PAD4 (%): 73%

## D-S-K-F-A-F-R-G-G-I-A-S-D (DSKFAFRGGIASD; not fully specified (C-terminus); printed as D-S-K-F-A-F-R-G-G-I-A-S-D) [Peptide 0735-41]
PAD2
  Conversion (%): 90%
  Conversion by PAD2 (%): 90%
PAD4
  Conversion by PAD4 (%): 25%

## D-S-K-F-H-F-R-Y-A-V-A-S-D (DSKFHFRYAVASD; not fully specified (C-terminus); printed as D-S-K-F-H-F-R-Y-A-V-A-S-D) [Peptide 0735-35]
PAD2
  Conversion (%): 92%
  Conversion by PAD2 (%): 92%
PAD4
  Conversion by PAD4 (%): <20%

## D-S-K-H-K-D-R-E-Y-V-F-S-D (DSKHKDREYVFSD; not fully specified (C-terminus); printed as D-S-K-H-K-D-R-E-Y-V-F-S-D) [Peptide 0608-22]
PAD4; Table 4, 13-mer peptides
  Conversion (%): 90%

## D-S-K-K-F-D-R-D-F-L-F-S-D (DSKKFDRDFLFSD; not fully specified (C-terminus); printed as D-S-K-K-F-D-R-D-F-L-F-S-D) [Peptide 0708-27]
PAD4
  Conversion: 51

## D-S-K-K-H-D-R-D-H-L-F-S-D (DSKKHDRDHLFSD; not fully specified (C-terminus); printed as D-S-K-K-H-D-R-D-H-L-F-S-D) [Peptide 0708-21]
PAD4
  Conversion: 53

## D-S-K-K-H-D-R-D-K-L-F-S-D (DSKKHDRDKLFSD; not fully specified (C-terminus); printed as D-S-K-K-H-D-R-D-K-L-F-S-D) [Peptide 0708-24]
PAD4
  Conversion: 35

## D-S-K-K-W-S-R-E-Y-F-F-S-D (DSKKWSREYFFSD; not fully specified (C-terminus); printed as D-S-K-K-W-S-R-E-Y-F-F-S-D) [Peptide 0608-30]
PAD4; Table 4, 13-mer peptides
  Conversion (%): 90%

## D-S-K-W-F-D-R-D-H-L-Y-S-D (DSKWFDRDHLYSD; not fully specified (C-terminus); printed as D-S-K-W-F-D-R-D-H-L-Y-S-D) [Peptide 0708-16]
PAD4
  Conversion: 70

## D-S-M-C-A-F-R-G-A-K-K-S-D (DSMCAFRGAKKSD) [Peptide 0735-31]
PAD2
  Conversion (%): 59%

## D-S-N-K-H-H-R-D-H-L-Y-S-D (DSNKHHRDHLYSD) [Peptide 0708-17]
PAD4
  Conversion: 38

## D-S-N-W-H-H-R-D-H-L-Y-S-D (DSNWHHRDHLYSD) [Peptide 0708-19]
PAD4
  Conversion: 45

## D-S-Q-C-L-F-R-G-A-F-A-S-D (DSQCLFRGAFASD) [Peptide 0735-40]
PAD2
  Conversion (%): 73%

## D-S-Q-F-A-F-R-G-A-F-W-S-D (DSQFAFRGAFWSD) [Peptide 0735-30]
PAD2
  Conversion (%): 65%

## D-S-Q-F-A-F-R-H-F-S-A-S-D (DSQFAFRHFSASD) [Peptide 0735-32]
PAD2
  Conversion (%): 85%

## D-S-Q-F-A-H-R-N-A-S-A-S-D (DSQFAHRNASASD) [Peptide 0735-28]
PAD2
  Conversion (%): 35%

## D-S-Q-F-A-Y-R-N-A-K-A-S-D (DSQFAYRNAKASD) [Peptide 0735-36]
PAD2
  Conversion (%): 74%

## D-S-Q-F-K-F-R-G-A-F-A-S-D (DSQFKFRGAFASD) [Peptide 0735-39]
PAD2
  Conversion (%): 80%

## D-S-Q-W-A-F-R-G-A-F-A-S-D (DSQWAFRGAFASD) [Peptide 0735-33]
PAD2
  Conversion (%): 82%

## D-S-Q-W-A-F-R-N-A-F-A-S-D (DSQWAFRNAFASD) [Peptide 0735-38]
PAD2
  Conversion (%): 82%

## D-S-W-K-A-F-R-G-A-S-A-S-D (DSWKAFRGASASD) [Peptide 0735-29]
PAD2
  Conversion (%): 70%

## D-S-W-W-H-K-R-D-K-L-Y-S-D (DSWWHKRDKLYSD) [Peptide 0708-23]
PAD4
  Conversion: 18

## F-F-D-S-H-H-K-D-R-D-H-V-E-S-D (FFDSHHKDRDHVESD) [Peptide 0612-39]
PAD4; [1]
  Conversion (%): 100%

## F-F-D-S-H-H-L-S-R-D-F-M-Y-S-D (FFDSHHLSRDFMYSD) [Peptide 0612-41]
PAD4; [1]
  Conversion (%): 98%

## F-F-D-S-H-H-W-D-R-E-W-F-W-S-D (FFDSHHWDREWFWSD) [Peptide 0612-42]
PAD4; [1]
  Conversion (%): 100%

## F-F-D-S-H-K-H-H-R-D-H-L-E-S-D (FFDSHKHHRDHLESD) [Peptide 0612-43]
PAD4; [1]
  Conversion (%): 100%

## F-F-D-S-H-K-L-D-R-E-Y-M-F-S-D (FFDSHKLDREYMFSD) [Peptide 0612-36]
PAD4; [1]
  Conversion (%): 100%

## F-F-D-S-H-K-W-S-R-D-H-F-E-S-D (FFDSHKWSRDHFESD) [Peptide 0612-47]
PAD4; [1]
  Conversion (%): 100%

## F-F-D-S-K-H-F-H-R-D-F-I-Y-S-D (FFDSKHFHRDFIYSD) [Peptide 0612-25]
PAD4; [1]
  Conversion (%): 100%

## F-F-D-S-K-H-H-H-R-E-Y-L-F-S-D (FFDSKHHHREYLFSD) [Peptide 0612-28]
PAD4; [1]
  Conversion (%): 100%

## F-F-D-S-K-H-H-S-R-D-H-L-E-S-D (FFDSKHHSRDHLESD) [Peptide 0612-23]
PAD4; [1]
  Conversion (%): 100%

## F-F-D-S-K-H-K-D-R-E-Y-V-F-S-D (FFDSKHKDREYVFSD) [Peptide 0612-24]
PAD4; [1]
  Conversion (%): 100%

## F-F-D-S-K-H-W-D-R-D-H-F-E-S-D (FFDSKHWDRDHFESD) [Peptide 0612-27]
PAD4; [1]
  Conversion (%): 100%

## F-F-D-S-K-K-H-D-R-D-F-L-Y-S-D (FFDSKKHDRDFLYSD) [Peptide 0612-33]
PAD4; [1]
  Conversion (%): 100%

## F-F-D-S-K-K-L-H-R-D-H-M-E-S-D (FFDSKKLHRDHMESD) [Peptide 0612-31]
PAD4; [1]
  Conversion (%): 88%
